The test concerns the target HaHV1 UL36h NLS peptide (residues 1491-1500), FITC/Ahx-labelled (haliotid herpesvirus 1 (HaHV1)). Kind of test: fluorescence polarisation. A general note: In fluorescence polarisation assays a small probe gives low polarisation when free and higher when bound to something large.

On to “human importin α1 lacking the importin-β binding domain (hIMPα1ΔIBB) (domain or fragment)”, for which the Kd was determined as 0.226 µM.
“human importin α3 lacking the importin-β binding domain (hIMPα3ΔIBB) (domain or fragment)” gave a Kd of 0.193 µM.

As a reminder, the Kd is a measure of binding affinity in units of concentration. Low values mean higher affinity, high ones lower affinity.
